First the molecules themselves.
B1: CPEB3 Ribozyme (parent)
chain: GGGGGCCACAGCAGAAGCGUUCACGUCGCGGCCCCUGUCAGAUUCUGGUGAAUCUGCGAAUUCUGCUGU

Variants of B1 are the subject of the data set. Nature of the data set: self-cleavage, relative activity (ratio to wild type); higher = more cleavage; co-transcriptional.
C22U C45G: the self-cleavage amounted to 0.25.

As for C22U C45A, the self-cleavage worked out at 0.33.

C22U C45U: the self-cleavage came to 0.318.

As to C22U G48C, the self-cleavage worked out at 0.313.

Consider C22U G48U, for which the self-cleavage is 0.401.

For C22A U26C, the self-cleavage is 0.242.

In the case of C22A U26G, the self-cleavage stood at 0.305.

As to C22G G58C, the self-cleavage came out at 0.161.

C22G G58U: the self-cleavage turned out to be 0.202.

Regarding C22G G50C, the self-cleavage amounted to 0.127.

For the variant C22G G50U, the self-cleavage stood at 0.145.

For the variant C22G G31U, the self-cleavage came out at 0.178.

Regarding C22A A60C, the self-cleavage was 0.129.

As for C22U C34U, the self-cleavage was 0.332.

With C22U C34G, the self-cleavage turned out to be 0.202.

Consider C22U C34A, for which the self-cleavage was 0.22.

In the case of U21G U67G, the self-cleavage came to 0.579.

As to C22A A40C, the self-cleavage amounted to 0.222.

Turning to C22A A40U, the self-cleavage was determined as 0.235.

For C22A A40G, the self-cleavage came out at 0.246.

On to C22U C32A, for which the self-cleavage turned out to be 0.17.

As to C22U C32U, the self-cleavage is 0.33.

For C22G U26G, the self-cleavage turned out to be 0.163.

Turning to C22G C54U, the self-cleavage was determined as 0.204.

As for C22G C54A, the self-cleavage worked out at 0.121.

For the variant C22G C54G, the self-cleavage was 0.125.

Take C22U U26A: the self-cleavage was 0.2.

For C22U U46A, the self-cleavage came out at 0.29.

On to A23C, for which the self-cleavage was 0.957.

For C22U G50C, the self-cleavage stood at 0.243.

As for C22U G50U, the self-cleavage was found to be 0.312.

For C22U G50A, the self-cleavage worked out at 0.355.

In the case of C22U A52C, the self-cleavage came to 0.233.

Consider C22U A52G, for which the self-cleavage turned out to be 0.379.

As to C22G U53G, the self-cleavage was 0.129.

In the case of C22G U53C, the self-cleavage is 0.184.

For C22A C33A, the self-cleavage was determined as 0.2.

Consider C22A C33U, for which the self-cleavage worked out at 0.218.

With U21G U62C, the self-cleavage is 0.305.

Regarding U21G U62A, the self-cleavage turned out to be 0.316.

For U21G U62G, the self-cleavage was found to be 0.273.

For C22A C32G, the self-cleavage turned out to be 0.182.

In the case of C22A C32A, the self-cleavage was 0.224.

As for C22A C32U, the self-cleavage is 0.201.

For C22U C63G, the self-cleavage is 0.156.

As to C22U C63A, the self-cleavage was 0.178.

Take C22U C63U: the self-cleavage came to 0.265.

On to C22U C54A, for which the self-cleavage was determined as 0.19.

In the case of U21G U55G, the self-cleavage worked out at 0.346.

On to C22U U62A, for which the self-cleavage came to 0.167.

As to C22U U62G, the self-cleavage came to 0.207.

In the case of C22A C29G, the self-cleavage is 0.162.

Take C22A C29U: the self-cleavage was 0.158.

Regarding C22A C29A, the self-cleavage amounted to 0.169.

For C22G G68U, the self-cleavage was 0.197.

With C22G C45G, the self-cleavage amounted to 0.229.

With C22G C45A, the self-cleavage is 0.223.

In the case of C22U U67A, the self-cleavage came out at 0.369.

Regarding C22U C39A, the self-cleavage is 0.148.

Regarding C22U C39G, the self-cleavage is 0.207.

Consider A23C C29A, for which the self-cleavage stood at 0.603.

In the case of A23C C29U, the self-cleavage came to 0.389.

For the variant C22U G37C, the self-cleavage turned out to be 0.216.

Consider C22U G37A, for which the self-cleavage is 0.957.

Turning to C22A U38A, the self-cleavage amounted to 0.225.

As for C22A U38G, the self-cleavage worked out at 0.131.

Regarding C22G C57G, the self-cleavage was 0.205.

As for C22A C66U, the self-cleavage is 0.177.

Regarding C22A C66G, the self-cleavage was 0.138.

Consider C22G C63A, for which the self-cleavage came to 0.141.

For the variant C22G C63G, the self-cleavage turned out to be 0.209.

Consider C22G C63U, for which the self-cleavage was 0.123.

Regarding C22A G30C, the self-cleavage worked out at 0.168.

Consider C22A G30U, for which the self-cleavage came to 0.181.

Regarding C22U U43G, the self-cleavage amounted to 0.222.

As for C22U U43A, the self-cleavage was 0.217.

On to C22A C39U, for which the self-cleavage stood at 0.206.

Consider C22U A23U, for which the self-cleavage was 0.384.

In the case of C22U A23G, the self-cleavage was 0.307.

For the variant C22A G48A, the self-cleavage was found to be 0.223.

As to C22A G48U, the self-cleavage worked out at 0.162.

As to C22A G48C, the self-cleavage was found to be 0.162.

For the variant C22U U61G, the self-cleavage turned out to be 0.264.

For the variant C22U U61C, the self-cleavage came out at 0.134.

For C22G U62C, the self-cleavage came to 0.117.

As for C22G U62A, the self-cleavage amounted to 0.194.

Turning to C22G U62G, the self-cleavage worked out at 0.162.

Take C22A U67G: the self-cleavage was 0.27.

Consider C22A U67A, for which the self-cleavage is 0.174.

With C22U G56U, the self-cleavage worked out at 0.169.

With C22U G56C, the self-cleavage worked out at 0.21.

As to C22U G56A, the self-cleavage was determined as 0.187.

In the case of C22G U69C, the self-cleavage amounted to 0.374.

With U21G U61C, the self-cleavage was found to be 0.214.

As to U21G U61G, the self-cleavage turned out to be 0.24.

Turning to A23C A40G, the self-cleavage worked out at 0.92.

For C22G U64A, the self-cleavage worked out at 0.202.

In the case of C22G U64C, the self-cleavage was found to be 0.205.

On to U21G U69G, for which the self-cleavage was 0.823.

In the case of U21G U69C, the self-cleavage is 0.863.

Turning to U21G U69A, the self-cleavage is 0.667.

Consider C22G U46A, for which the self-cleavage was found to be 0.205.

On to C22G U46C, for which the self-cleavage was determined as 0.192.

With C22A A23C, the self-cleavage was found to be 0.202.

With C22U U49C, the self-cleavage was 0.294.

For C22U U49G, the self-cleavage was determined as 0.247.

Take C22A C24U: the self-cleavage worked out at 0.128.

In the case of C22A C24G, the self-cleavage amounted to 0.249.

On to C22G U67A, for which the self-cleavage is 0.242.

C22G U67G: the self-cleavage turned out to be 0.121.

Consider C22G U67C, for which the self-cleavage was found to be 0.175.

On to C22U C27A, for which the self-cleavage is 0.2.

On to C22U C27G, for which the self-cleavage is 0.215.

C22U C27U: the self-cleavage is 0.164.

On to C22U U36C, for which the self-cleavage turned out to be 0.157.

As for C22U U36G, the self-cleavage worked out at 0.175.

Take C22U U36A: the self-cleavage came to 0.196.

C22G G30C: the self-cleavage is 0.166.

For C22G G30A, the self-cleavage stood at 0.219.

For C22G G30U, the self-cleavage was 0.162.

Turning to C22G U38C, the self-cleavage was determined as 0.232.

On to C22G U38A, for which the self-cleavage stood at 0.165.

As to C22G U38G, the self-cleavage was determined as 0.177.

For the variant C22G A51C, the self-cleavage turned out to be 0.151.

Consider C22G A51U, for which the self-cleavage stood at 0.163.

Regarding C22G A51G, the self-cleavage came to 0.131.

Take C22U U53C: the self-cleavage is 0.227.

C22U U53A: the self-cleavage is 0.193.

Consider C22U U53G, for which the self-cleavage came to 0.111.

C22A G56A: the self-cleavage was 0.134.

On to C22A G56C, for which the self-cleavage was found to be 0.173.

Consider C22G U49C, for which the self-cleavage worked out at 0.123.

With C22G U49G, the self-cleavage was 0.153.

As to C22A G65A, the self-cleavage came out at 0.152.

In the case of C22A G65U, the self-cleavage came out at 0.209.

With C22G C33U, the self-cleavage is 0.264.

C22G C33A: the self-cleavage worked out at 0.195.

For C22U U44A, the self-cleavage stood at 0.318.

For C22U U44G, the self-cleavage was 0.241.

On to C22U U44C, for which the self-cleavage was found to be 0.31.

In the case of C22A G50C, the self-cleavage was determined as 0.234.

For C22A G50U, the self-cleavage is 0.253.

With C22G G65C, the self-cleavage was 0.196.

Regarding C22G G65A, the self-cleavage was 0.173.

C22G G65U: the self-cleavage stood at 0.212.

Turning to C22A U64A, the self-cleavage was determined as 0.176.

For the variant C22A U64G, the self-cleavage came to 0.0937.

Regarding C22A U64C, the self-cleavage amounted to 0.168.

Turning to C22A A51U, the self-cleavage came to 0.242.

For the variant C22A A51G, the self-cleavage is 0.169.

In the case of C22U G58U, the self-cleavage turned out to be 0.374.

Consider C22U G58C, for which the self-cleavage turned out to be 0.223.

C22U G58A: the self-cleavage stood at 0.255.

For the variant C22U A60U, the self-cleavage is 0.137.

As to C22U A60C, the self-cleavage was 0.158.

For C22U A60G, the self-cleavage came out at 0.223.

Regarding C22G G56U, the self-cleavage was 0.202.

In the case of C22A G37U, the self-cleavage is 0.937.

On to C22A G37C, for which the self-cleavage was found to be 0.265.

Consider C22U C35A, for which the self-cleavage stood at 0.178.

In the case of C22U C35U, the self-cleavage amounted to 0.183.

With C22A U49A, the self-cleavage is 0.195.

Turning to C22A U49G, the self-cleavage worked out at 0.0812.

In the case of C22A U49C, the self-cleavage came to 0.209.

With C22A C63G, the self-cleavage was 0.114.

Regarding C22A C63A, the self-cleavage was 0.13.

Take C22G A52G: the self-cleavage is 0.124.
